Reference: patent publication US20250243272A1 (GOOD T CELLS, published 2025)

B1: GTC210-01 clone (Production Example 1) (antibody, mouse IgG2a, V domains shown)
VH: EVQLLESGGGLVQPGGSLRLSCAASGFTFSGYDMSWVRQAPGKGLEWVSLIYPDSGNKYYADSVKGRFTISRDNSKNTLYLQMNSLRAEDTAVYYCARDAGLSWAGAFDYWGQGTLVTVSS
VL: QSVLTQPPSASGTPGQRVTISCSGSSSNIGSNYVTWYQQLPGTAPKLLIYSDSHRPSGVPDRFSGSKSGTSASLAISGLQSEDEADYYCGSWDYSLSAYVFGGGTKLTVLR
notes: the printed full chains carry mouse constant regions
B2: GTC210-02 clone (Production Example 2) (antibody, mouse IgG2a, V domains shown)
VH: EVQLLESGGGLVQPGGSLRLSCAASGFTFSNYYMSWVRQAPGKGLEWVSGISPGDSSTYYADSVKGRFTISRDNSKNTLYLQMNSLRAEDTAVYYCAKGLYSNPNEPFDYWGQGTLVTVSS
VL: QSVLTQPPSASGTPGQRVTISCTGSSSNIGSNYVSWYQQLPGTAPKLLIYDDSQRPSGVPDRFSGSKSGTSASLAISGLRSEDEADYYCGTWDYSLNGYVFGGGTKLTVLR
B3: GTC 210-04 clone (Production Example 4) (antibody, mouse IgG2a, V domains shown)
VH: EVQLLESGGGLVQPGGSLRLSCAASGFTFSNYDMSWVRQAPGKGLEWVSSISPSSGSIYYADSVKGRFTISRDNSKNTLYLQMNSLRAEDTAVYYCAKDLDAFWRPSFDYWGQGTLVTVSS
VL: QSVLTQPPSASGTPGQRVTISCTGSSSNIGNNNVNWYQQLPGTAPKLLIYSDSHRPSGVPDRFSGSKSGTSASLAISGLRSEDEADYYCGSWDDSLSAYVFGGGTKLTVLR
notes: The printed heavy variable region is the same as that of GTC110-01
B4: GTC110-04 clone (Production Example 8) (antibody, mouse IgG2a, V domains shown)
VH: EVQLLESGGGLVQPGGSLRLSCAASGFTFSNYAMSWVRQAPGKGLEWVSVISHGGGSTYYADSVKGRFTISRDNSKNTLYLQMNSLRAEDTAVYYCARVISNCHLGVCYYSNGMDVWGQGTLVTVSS
VL: QSVLTQPPSASGTPGQRVTISCSGSSSNIGNNDVYWYQQLPGTAPKLLIYSDSQRPSGVPDRFSGSKSGTSASLAISGLRSEDEADYYCGTWDYSLSGYVFGGGTKLTVLR
notes: also called GTC110-04 antibody; GTTC110-04 antibody
B5: GTC110-03 clone (Production Example 7) (antibody, mouse IgG2a, V domains shown)
VH: EVQLLESGGGLVQPGGSLRLSCAASGFTFSNYAMSWVRQAPGKGLEWVSAIYPGGGSIYYADSVKGRFTISRDNSKNTLYLQMNSLRAEDTAVYYCARDILPCPWGRCYYDYAMDVWGQGTLVTVSS
VL: QSVLTQPPSASGTPGQRVTISCSDSSSNIGSNTVSWYQQLPGTAPKLLIYADNNRPSGVPDRFSGSKSGTSASLAISGLRSEDEADYYCGTWDYSLSGYVFGGGTKLTVLR
B6: GTC210-03 clone (Production Example 3) (antibody, mouse IgG2a, V domains shown)
VH: EVQLLESGGGLVQPGGSLRLSCAASGFTFSSYDMSWVRQAPGKGLEWVSGISPDGSNIYYADSVKGRFTISRDNSKNTLYLQMNSLRAEDTAVYYCAKVGLRCRYEACSYAYGMDVWGQGTLVTVSS
VL: QSVLTQPPSASGTPGQRVTISCSGSSSNIGSNYVSWYQQLPGTAPKLLIYSDSHRPSGVPDRFSGSKSGTSASLAISGLRSEDEADYYCATWDSSLNGYVFGGGTKLTVLR
B7: GTC110-02 clone (Production Example 6) (antibody, mouse IgG2a, V domains shown)
VH: EVQLLESGGGLVQPGGSLRLSCAASGFTFSDYYMSWVRQAPGKGLEWVSGISHDSGSKYYADSVKGRFTISRDNSKNTLYLQMNSLRAEDTAVYYCARHWTTFDYWGQGTLVTVSS
VL: QSVLTQPPSASGTPGQRVTISCSGSSSNIGSNNVTWYQQLPGTAPKLLIYANSNRPSGVPDRFSGSKSGTSASLAISGLRSEDEADYYCGAWDYSLSAYVFGGGTKLTVLR

Each binder was assayed against T1, Lrig-1 protein expressed on the surfaces of L cells (human, UniProt Q96JA1 35-1093) (assay: FACS on L cells stably expressing Lrig-1, eFlour 670-conjugated anti-mouse secondary antibody).
T1 construct: no signal peptide limits are stated; also called L cells that stably express Lrig-1
T1 sequence: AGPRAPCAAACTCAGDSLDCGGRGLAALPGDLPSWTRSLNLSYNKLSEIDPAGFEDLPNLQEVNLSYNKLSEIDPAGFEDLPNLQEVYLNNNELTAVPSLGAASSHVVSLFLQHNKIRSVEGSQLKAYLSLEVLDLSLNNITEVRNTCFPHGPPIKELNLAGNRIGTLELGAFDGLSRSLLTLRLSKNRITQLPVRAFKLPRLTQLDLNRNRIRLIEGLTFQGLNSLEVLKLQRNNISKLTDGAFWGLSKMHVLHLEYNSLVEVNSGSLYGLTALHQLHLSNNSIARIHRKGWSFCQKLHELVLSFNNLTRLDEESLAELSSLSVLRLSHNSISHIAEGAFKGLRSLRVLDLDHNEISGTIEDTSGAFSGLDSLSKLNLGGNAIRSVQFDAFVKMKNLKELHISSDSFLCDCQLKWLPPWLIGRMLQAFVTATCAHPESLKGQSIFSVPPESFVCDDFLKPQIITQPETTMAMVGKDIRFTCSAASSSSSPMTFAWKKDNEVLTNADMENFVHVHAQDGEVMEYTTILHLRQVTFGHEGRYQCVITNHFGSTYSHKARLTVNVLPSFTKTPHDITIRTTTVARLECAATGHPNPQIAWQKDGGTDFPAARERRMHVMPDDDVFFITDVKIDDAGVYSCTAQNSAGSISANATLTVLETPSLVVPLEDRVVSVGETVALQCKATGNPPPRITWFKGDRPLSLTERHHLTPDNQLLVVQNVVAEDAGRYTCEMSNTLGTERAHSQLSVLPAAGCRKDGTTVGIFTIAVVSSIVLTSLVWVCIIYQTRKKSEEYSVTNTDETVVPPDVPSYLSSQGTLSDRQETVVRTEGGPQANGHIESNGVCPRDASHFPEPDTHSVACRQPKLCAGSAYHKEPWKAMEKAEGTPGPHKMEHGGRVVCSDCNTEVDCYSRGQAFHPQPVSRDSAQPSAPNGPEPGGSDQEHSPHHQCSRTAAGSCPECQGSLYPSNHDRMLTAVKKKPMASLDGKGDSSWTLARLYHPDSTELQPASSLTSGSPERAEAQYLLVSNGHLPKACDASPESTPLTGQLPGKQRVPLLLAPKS
Procedure: In order to examine whether the monoclonal antibodies according to the present invention, produced in Production Examples 1 to 8, well recognize Lrig-1, each of the antibodies of Production Examples 1 to 8 was bound to L cells that stably express Lrig-1, and then an eFlour 670-conjugated secondary antibody capable of recognizing mouse antibodies was added thereto. Next, the binding affinities of the monoclonal antibodies for the Lrig-1 protein were analyzed using FACS.

Binding result, binds:
B1
B2
B3
B4
B5
B6
B7
